The source of these data is patent US20250250593A1, “METHOD FOR PREPARING ALPHA-BRANCHED BETA'-HYDROXY CARBONYL COMPOUNDS BY ENZYMATIC-CATALYZED REDUCTIVE ALDOL REACTION” (Max-Planck-Gesellschaft zur Förderung der Wissenschaften …, priority 2022, published 2025).

What is called Km is the substrate concentration at which the rate is half of its maximum. One may read the kcat as the number of substrate molecules converted per active site and unit of time at saturation.

The target in series [1] is T1, Kitasatospora setae crotonyl-CoA carboxylase/reductase (KsCcr) variant His365Asn (H365N), SEQ ID NO: 19 (Kitasatospora setae, UniProt E4N096, H365N).
T1 construct: gene provided by JGI
T1 sequence (E4N096 1-445 H365N): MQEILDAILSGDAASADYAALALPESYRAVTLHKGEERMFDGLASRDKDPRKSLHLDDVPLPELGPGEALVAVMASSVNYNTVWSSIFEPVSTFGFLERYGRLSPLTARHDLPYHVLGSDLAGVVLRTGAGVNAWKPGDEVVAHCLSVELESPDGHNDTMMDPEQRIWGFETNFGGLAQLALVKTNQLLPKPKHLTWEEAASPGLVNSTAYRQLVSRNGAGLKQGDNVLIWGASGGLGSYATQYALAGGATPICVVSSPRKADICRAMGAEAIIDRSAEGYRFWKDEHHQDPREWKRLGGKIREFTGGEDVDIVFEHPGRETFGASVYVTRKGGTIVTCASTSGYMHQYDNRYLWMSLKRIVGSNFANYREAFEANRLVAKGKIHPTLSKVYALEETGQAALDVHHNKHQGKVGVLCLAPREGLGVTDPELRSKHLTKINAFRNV
The series can be described thus: Steady-state kinetics of the reductive aldol reaction (crotonyl-CoA + formaldehyde + NADPH). In kind it is biochemical. As for the experimental part:
His-tagged KsCcr and its variants were expressed in E. coli BL21 (DE3). Cells in terrific broth were grown at 37° C. to an OD600=0.8-1.0 upon which expression for 12-16 h at 23° C. was induced by the addition of 500 μM IPTG (Isopropyl-D-β-thiogalactopyranoside). Cells were harvested for 15 min at 7500× g at 4° C. then resuspended in 2 mL of buffer A (50 mM Tris, 500 mM NaCl, 1 M L-Proline, pH=7.5) per gram of pellet. The suspension was treated with […] of DNAse I, 5 mM MgCl2, 10 μg/ml of lysozyme and incubated on ice for 20 min upon which cells were lysed using a sonicator. The lysate was clarified at 45000× g at 4° C. for 40 min and then loaded onto a pre-equilibrated 1 mL HisTrap FF column and washed with 15% buffer B (50 mM Tris, 500 mM NaCl, 1 M L-Proline, 500 mM imidazole, pH=7.5) for 20-30 column volumes until the UV 280 nm reached the baseline level. […]
Formaldehyde stock solution concentration was determined by following the formation of phenylhydrazone at 368 nm (εPhenylhydrazone,368 nm=6.1 mM^−1 cm^−1). […]
For reactions in which the full conversion to the aldol product was achieved assays were performed on a Cary-60 UV/Vis spectrophotometer (Agilent) at 30° C. using quartz cuvettes (1 mm, 3 mm or 10 mm path length; Hellma). […] Kinetic parameters for one substrate were determined by varying its concentration while the others were kept constant at 10 times their KM value.

A further series relates to CcCcrPAG. Put plainly: Substrate promiscuity screen: enoyl-CoAs with aldehydes, LC-MS. In kind it is biochemical, Caulobacter crescentus. The settings on record: six enoyl-CoAs with formaldehyde, acetaldehyde, propionaldehyde, benzaldehyde; with Acx4 and catalase. The source says: According to phylogenetic and structural analysis, KsCcr belongs to the ECR-1 subfamily of enzymes that are mainly restricted to short-chain enoyl-CoAs. To increase the substrate scope of reductive aldol reactions, the inventors sought to use a more promiscuous enzyme. To that end, a triple variant of Caulobacter crescentus crotonyl-CoA carboxylase/reductase (CcCcrC146P/1169A/F373G, here CcCcrPAG) was employed that had been engineered to accept a variety of enoyl-CoAs, including short- and long-chain, branched, aromatic, bulky and halogenated analogs. Six different enoyl-CoA substrates (FIG. 4) were synthesized and tested in combination with four different aldehydes (formaldehyde, acetaldehyde, propionaldehyde, benzaldehyde) and by LC-MS.
Assays were performed in 100 mM K2HPO4 pH=8.0 at 30° C. and 10 μL samples were taken at different time points and quenched with 1 μL of 50% formic acid. The samples were spinned at 17000 g for 10 min at 4° C. to precipitate the protein and then analyzed by LC-MS.
Determination of CoA esters was performed using a HRES-LC-MS. […]

Series [2] has as its system crotonyl-CoA carboxylase/reductase obtained from Caulobacter crescentus (CcCcr). Put plainly: First empirical data on reductive aldol reaction by CcCcr. In kind it is biochemical.
Substrate in series [3]: NC(=O)C1=CN([C@@H]2O[C@H](COP(=O)(O)OP(=O)(O)OC[C@H]3O[C@@H](n4cnc5c(N)ncnc54)[C@H](OP(=O)(O)O)[C@@H]3O)[C@@H](O)[C@H]2O)C=CC1
The series can be described thus: cells, lysate or membranes named. The conditions noted are these: other: apparent KM, 100 mM K2HPO4 pH 8.0, 30 °C, other substrates at 10 times KM, mean ± standard error.

Substrate in series [4]: C/C=C/C(=O)SCCNC(=O)CCNC(=O)[C@H](O)C(C)(C)COP(=O)(O)OP(=O)(O)OC[C@H]1O[C@@H](n2cnc3c(N)ncnc32)[C@H](O)[C@@H]1OP(=O)(O)O
The series can be described thus: cells, lysate or membranes named. In kind it is biochemical, Kitasatospora setae. The conditions noted are these: other substrates at 10 times KM, mean ± standard error.

Substrate in series [5]: C=O
The series can be described thus: cells, lysate or membranes named. The conditions noted are these: other: calculated with K = 1000 for the equilibrium between formaldehyde and its methylene diol form, pH 8.0, 30 °C. The class given is biochemical, Kitasatospora setae.

Substrate in series [6]: NC(=O)C1=CN([C@@H]2O[C@H](COP(=O)(O)OP(=O)(O)OC[C@H]3O[C@@H](n4cnc5c(N)ncnc54)[C@H](OP(=O)(O)O)[C@@H]3O)[C@@H](O)[C@H]2O)C=CC1
Put plainly: cells, lysate or membranes named. The class given is biochemical, Kitasatospora setae. The settings on record: other: 100 mM K2HPO4 pH 8.0, 30 °C, other substrates at 10 times KM, mean ± standard error.

Setting [7] is: other: apparent KM, 100 mM K2HPO4 pH 8.0, 30 °C.
[8] abbreviates: other: 100 mM K2HPO4 pH 8.0, 30 °C.

On to `C=O` [formaldehyde], for which, in series [1] (decreased to % of the WT enzyme), the “apparent catalytic rate relative to WT enzyme” value is recorded as 10%. Further, the “apparent KM for formaldehyde, increase compared to WT” value in series [1] (fold increase compared to WT) is recorded as “two-fold”.

B1: CcCcrPAG: triple variant of Caulobacter crescentus crotonyl-CoA carboxylase/reductase engineered to accept a variety of enoyl-CoAs, SEQ ID NO: 29 (protein)
chain: MTIQTLETTALKDLYEIGEIPPAFHVPKTMYAWSIRKERHGKPTQAMQVEVVPTWEIGEDEVLVLVMAAGVNYNGVWAALGEPISPLDGHKQPFHIAGSDASGIVWKVGAKVKRWKLGDEVVIHPNQDDGDDEECNGGDPMFSSSQRAWGYETPDGSFAQFCRVQSRQLLPRPKHLTWEESACYTLTLATAYRMLFGHKPHELKPGQNVLVWGASGGLGVFATQLAAVAGANAIGVVSSEDKREFVLSMGAKAVLNRGEFNCWGQLPKVNGPEFNDYMKESRKFGKAIWQITGNKDVDMVFEHPGEQTFPVSVFLVKRGGMVVICAGTTGFNLTMDARFLWMRQKRVQGSHGANLMQASAANQLVIDRRVDPCLSEVFPWDQIPAAHEKMLANQHLPGNMAVLVCAQRPGLRTFEEVQELSGAP
modifications: CcCcr C125P/I148A/F352G
For B1, the “conversion of enoyl-CoAs to aldol products” value in the series on CcCcrPAG is “catalyzed conversion of all the tested enoyl-CoAs”.

B2: CcCcr: wild type crotonyl-CoA carboxylase/reductase obtained from Caulobacter crescentus, SEQ ID NO: 2 (protein)
chain: MTIQTLETTALKDLYEIGEIPPAFHVPKTMYAWSIRKERHGKPTQAMQVEVVPTWEIGEDEVLVLVMAAGVNYNGVWAALGEPISPLDGHKQPFHIAGSDASGIVWKVGAKVKRWKLGDEVVIHCNQDDGDDEECNGGDPMFSSSQRIWGYETPDGSFAQFCRVQSRQLLPRPKHLTWEESACYTLTLATAYRMLFGHKPHELKPGQNVLVWGASGGLGVFATQLAAVAGANAIGVVSSEDKREFVLSMGAKAVLNRGEFNCWGQLPKVNGPEFNDYMKESRKFGKAIWQITGNKDVDMVFEHPGEQTFPVSVFLVKRGGMVVICAGTTGFNLTMDARFLWMRQKRVQGSHFANLMQASAANQLVIDRRVDPCLSEVFPWDQIPAAHEKMLANQHLPGNMAVLVCAQRPGLRTFEEVQELSGAP
modifications: Caulobacter crescentus CcCCR crotonyl-CoA carboxylase/reductase
As to B2, in series [2], the “ability to catalyze a reductive aldol reaction” value is recorded as “able to catalyze a reductive aldol reaction”.

B3: Kitasatospora setae crotonyl-CoA carboxylase/reductase (KsCcr), wild type (WT), SEQ ID NO: 1 (Kitasatospora setae KM-6054) (protein)
chain: MQEILDAILSGDAASADYAALALPESYRAVTLHKGEERMFDGLASRDKDPRKSLHLDDVPLPELGPGEALVAVMASSVNYNTVWSSIFEPVSTFGFLERYGRLSPLTARHDLPYHVLGSDLAGVVLRTGAGVNAWKPGDEVVAHCLSVELESPDGHNDTMMDPEQRIWGFETNFGGLAQLALVKTNQLLPKPKHLTWEEAASPGLVNSTAYRQLVSRNGAGLKQGDNVLIWGASGGLGSYATQYALAGGATPICVVSSPRKADICRAMGAEAIIDRSAEGYRFWKDEHHQDPREWKRLGGKIREFTGGEDVDIVFEHPGRETFGASVYVTRKGGTIVTCASTSGYMHQYDNRYLWMSLKRIVGSHFANYREAFEANRLVAKGKIHPTLSKVYALEETGQAALDVHHNKHQGKVGVLCLAPREGLGVTDPELRSKHLTKINAFRNV
notes: gene provided by JGI
Turning to B3, the Km in series [3] stood at 389 ± 49 µM. In series [4] (setting [7]), the Km came to 33 ± 4 µM and the kcat was determined as 30 ± 1 s⁻¹.

B4: Kitasatospora setae crotonyl-CoA carboxylase/reductase (KsCcr) variant His365Asn (H365N), SEQ ID NO: 19 (Kitasatospora setae KM-6054; H365N) (protein)
chain: MQEILDAILSGDAASADYAALALPESYRAVTLHKGEERMFDGLASRDKDPRKSLHLDDVPLPELGPGEALVAVMASSVNYNTVWSSIFEPVSTFGFLERYGRLSPLTARHDLPYHVLGSDLAGVVLRTGAGVNAWKPGDEVVAHCLSVELESPDGHNDTMMDPEQRIWGFETNFGGLAQLALVKTNQLLPKPKHLTWEEAASPGLVNSTAYRQLVSRNGAGLKQGDNVLIWGASGGLGSYATQYALAGGATPICVVSSPRKADICRAMGAEAIIDRSAEGYRFWKDEHHQDPREWKRLGGKIREFTGGEDVDIVFEHPGRETFGASVYVTRKGGTIVTCASTSGYMHQYDNRYLWMSLKRIVGSNFANYREAFEANRLVAKGKIHPTLSKVYALEETGQAALDVHHNKHQGKVGVLCLAPREGLGVTDPELRSKHLTKINAFRNV
notes: gene provided by JGI
With B4, the values for the Km in series [4] (setting [8]), in series [5] and in series [6] were 69 ± 17 µM, 66 ± 23 µM and 16 ± 7 µM, respectively. The kcat in series [4] (setting [8]) and in series [5] was 3.1 ± 0.2 s⁻¹ throughout.
